Assay results from patent US20150004129A1.

Columns and labels:
[1] = target: Flag-CD40L (AA 116 to 261) (human) (UniProt P29965); assay: competitive ELISA; receptor/Fc coated, sCD40L at constant concentration, competitor titrated
[2] = target: Flag-CD40L (AA 116 to 261) (human) (UniProt P29965); assay: competitive ELISA; receptor/Fc coated, sCD40L at constant concentration, competitor titrated with 1 ug/ml protein A
Flag-FasL (soluble FasL) [3] = target: Flag-FasL (soluble FasL) (UniProt P48023); assay: BIAcore; Flag-FasL captured on immobilised M2 anti-Flag antibody
Flag-FasL (soluble FasL) [4] = target: Flag-FasL (soluble FasL) (UniProt P48023); assay: BIAcore; Flag-FasL captured on immobilised M2 anti-Flag antibody, receptor fusion protein injected
Flag-FasL (soluble FasL) [5] = target: Flag-FasL (soluble FasL) (UniProt P48023); assay: cell-based or functional assay
Flag-TRAIL = Flag-TRAIL (UniProt P50591); assay: BIAcore; 7 ul of 2.5 ug/ml Flag-TRAIL over immobilised M2 antibody
Flag-FasL (soluble FasL) [6] = target: Flag-FasL (soluble FasL) (UniProt P48023); assay: BIAcore; 7 ul of 2.5 ug/ml Flag-FasL over immobilised M2 antibody

Sequence of UniProt P48023 (P48023 other isoform, or with tags, fused parts or gaps): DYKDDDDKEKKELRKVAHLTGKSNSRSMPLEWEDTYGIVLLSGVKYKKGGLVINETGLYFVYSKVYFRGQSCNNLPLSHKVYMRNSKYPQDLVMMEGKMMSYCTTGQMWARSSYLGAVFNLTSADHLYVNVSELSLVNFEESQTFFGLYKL
Sequence of UniProt P29965 (P29965 other isoform, or with tags, fused parts or gaps): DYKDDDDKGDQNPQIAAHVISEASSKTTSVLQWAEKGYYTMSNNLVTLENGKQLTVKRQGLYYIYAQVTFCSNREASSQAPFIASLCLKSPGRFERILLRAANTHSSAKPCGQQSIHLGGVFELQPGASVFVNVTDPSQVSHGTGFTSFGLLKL

Substance: CD40:COMP fusion protein (from UniProt P25942 1-193) (receptor)
- fold increase in the affinity against CD40:Fc [1]: 30 fold

Substance: CD40:Fc cross-linked with protein A (from UniProt P25942 1-193)
- fold increase in the affinity against CD40:Fc [2]: 8 fold

Substance: Fas:COMP fusion protein (from UniProt P25445 26-170) (receptor)
- fold lower dissociation constant than Fas:Fc (Flag-FasL (soluble FasL) [3]): 8 to 9 fold
- Kd (Flag-FasL (soluble FasL) [4]): 0.77 nM
- inhibitory activity against sFasL-mediated lysis, fold against Fas:Fc (Flag-FasL (soluble FasL) [5]): 10 to 20 fold

Substance: Fas:Fc fusion protein (from UniProt P25445 26-170)
- protection of A20 cells exposed to a lethal dose of soluble FasL (cytotoxicity test) (Flag-FasL (soluble FasL) [5]): < 50%

Substance: M2 anti-Flag monoclonal antibody
- units bound (BIAcore) (Flag-TRAIL): 100 to 150 units
- units bound (BIAcore) (Flag-FasL (soluble FasL) [6]): 100 to 150 units
